Source: publication PMC4557296
One block for each substance: values may come before it.

How the values were obtained:
[1] = target: H3K9me3 (100%) chromatin array (12 nucleosomes) (human) (UniProt P68431); experiment: smTIRFM (single-molecule total internal reflection fluorescence microscopy); as a3, with 1000 nM unlabelled HP1α added to 1 nM Atto532-labelled HP1α
[2] = target: H3K9me3 (100%) chromatin array (12 nucleosomes) (human) (UniProt P68431); experiment: smTIRFM (single-molecule total internal reflection fluorescence microscopy); as a3, in the presence of 1 μM peptide P3
[3] = target: H3K9me3 (100%) chromatin array (12 nucleosomes) (human) (UniProt P68431); experiment: smTIRFM (single-molecule total internal reflection fluorescence microscopy); chromatin arrays or mononucleosomes immobilised by biotin-neutravidin on PEG-passivated coverslips; 1 nM Atto532-labelled HP1α or 0.5 nM HP1αcdm in 50 mM HEPES, 130 mM KCl, 10% glycerol, 2 mM trolox, 0.005% tween-20, glucose and oxygen removal system; dwell-time histograms; apparent KD for a nucleosome in an array, calculated from the fast phase
[4] = target: Atto532-labelled HP1α (human); experiment: smTIRFM (fluorescence intensities of individual binding events); 1 nM Atto532-labelled HP1α on immobilised chromatin arrays; share of events with the intensity of a dimer
[5] = target: H3K9me3 (100%) chromatin array (12 nucleosomes) (human) (UniProt P68431); experiment: smTIRFM (single-molecule total internal reflection fluorescence microscopy); chromatin arrays or mononucleosomes immobilised by biotin-neutravidin on PEG-passivated coverslips; 1 nM Atto532-labelled HP1α or 0.5 nM HP1αcdm in 50 mM HEPES, 130 mM KCl, 10% glycerol, 2 mM trolox, 0.005% tween-20, glucose and oxygen removal system; dwell-time histograms; apparent KD for a nucleosome in an array, calculated from the fast phase; remark: listed apart in the source
[6] = target: H3K9me0 (unmodified) chromatin array (12 nucleosomes) (human) (UniProt P68431); experiment: as above
[7] = target: H3K9me3 (75%) chromatin array (12 nucleosomes) (human) (UniProt P68431); experiment: as above
[8] = target: H3K9me3 mononucleosome (human) (UniProt P68431); experiment: as above
[9] = target: H3K9me3 (25%) chromatin array (12 nucleosomes) (human) (UniProt P68431); experiment: as above
[10] = target: H3K9me3 (50%) chromatin array (12 nucleosomes) (human) (UniProt P68431); experiment: as above
[11] = target: H3K9me3 (100%) chromatin array (12 nucleosomes) (human) (UniProt P68431); experiment: smTIRFM (single-molecule total internal reflection fluorescence microscopy); as a3, with the mutated peptide P4 added (concentration not given)
[12] = target: H3K9me3 (100%) chromatin array (12 nucleosomes) (human) (UniProt P68431); experiment: smTIRFM (single-molecule total internal reflection fluorescence microscopy); as a3, with 250 nM unlabelled HP1α added to 1 nM Atto532-labelled HP1α
[13] = target: H3K9me3 (100%) chromatin array (12 nucleosomes) (human) (UniProt P68431); experiment: smTIRFM (single-molecule total internal reflection fluorescence microscopy); chromatin arrays or mononucleosomes immobilised by biotin-neutravidin on PEG-passivated coverslips; 1 nM Atto532-labelled HP1α or 0.5 nM HP1αcdm in 50 mM HEPES, 130 mM KCl, 10% glycerol, 2 mM trolox, 0.005% tween-20, glucose and oxygen removal system; dwell-time histograms; apparent KD for a nucleosome in an array, calculated from the fast phase; remark: listed apart in the source
[14] = target: Atto532-labelled HP1α (human); experiment: smTIRFM (fluorescence intensities of individual binding events); as a10, in the presence of 1 μM peptide P3
[15] = target: H3K9me3 (100%) chromatin array (12 nucleosomes) (human) (UniProt P68431); experiment: smTIRFM (single-molecule total internal reflection fluorescence microscopy); as a3, with 50 nM unlabelled HP1α added to 1 nM Atto532-labelled HP1α
[16] = target: Atto532-labelled HP1α (human); experiment: MST; H3K9me3 1–14 peptide serially diluted (0.1–100 μM) and mixed 1:1 with a 300 nM stock of Atto532-labelled HP1α or HP1αcdm; 150 mM NaCl, 50 mM HEPES, 0.05% Tween, 1 mM DTT, pH 7.5; quadratic binding equation
HP1α (I163E) (human) = HP1α (I163E) (human) (UniProt P45973); experiment: as above
[17] = target: HP1αcdm (covalently dimerized HP1α, Atto532-labelled) (human) (UniProt P45973); experiment: as above
[18] = target: H3K9me3 (100%) chromatin array (12 nucleosomes) (human) (UniProt P68431); experiment: smTIRFM (single-molecule total internal reflection fluorescence microscopy); chromatin arrays or mononucleosomes immobilised by biotin-neutravidin on PEG-passivated coverslips; 1 nM Atto532-labelled HP1α or 0.5 nM HP1αcdm in 50 mM HEPES, 130 mM KCl, 10% glycerol, 2 mM trolox, 0.005% tween-20, glucose and oxygen removal system; dwell-time histograms; apparent KD for a nucleosome in an array, calculated from the fast phase; remark: listed apart in the source

Chain of HP1α (W40A) (P45973 whole entry, stated change not applied): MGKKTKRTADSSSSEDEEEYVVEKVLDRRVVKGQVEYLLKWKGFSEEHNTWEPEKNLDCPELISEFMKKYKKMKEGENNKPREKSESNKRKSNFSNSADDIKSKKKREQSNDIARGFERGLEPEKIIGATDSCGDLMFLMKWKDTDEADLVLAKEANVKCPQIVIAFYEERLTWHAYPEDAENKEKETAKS

Kd [1]: 3.11 µM
kon [1]: 2.92e+06 M⁻¹ s⁻¹
λon (apparent association time constant) [1]: 29.3 s
τoff,1 (fast phase of dissociation) [1]: 0.11 s
τoff,2 (slow phase of dissociation) [1]: 2.75 s
Kd [2]: 0.38 µM
kon [2]: 7.94e+06 M⁻¹ s⁻¹
λon (apparent association time constant) [2]: 10.5 s
τoff,1 (fast phase of dissociation) [2]: 0.33 s
τoff,2 (slow phase of dissociation) [2]: 4.8 s
kon [3]: 3.58e+06 M⁻¹ s⁻¹
percent of binding events attributed to dimeric protein [4]: 17%
Kd [5]: 1.16 µM
kon [5]: 3.64e+06 M⁻¹ s⁻¹
λon (apparent association time constant) [5]: 22.9 s
τoff,1 (fast phase of dissociation) [5]: 0.25 s
τoff,2 (slow phase of dissociation) [5]: 2.26 s
τoff,1 (fast phase of dissociation) [6]: 0.08 s
τoff,2 (slow phase of dissociation) [6]: 3.7 s
Kd [7]: 3.23 µM
kon [7]: 1.63e+06 M⁻¹ s⁻¹
λon (apparent association time constant) [7]: 51 s
τoff,1 (fast phase of dissociation) [7]: 0.19 s
τoff,2 (slow phase of dissociation) [7]: 4.03 s
τoff,1 (fast phase of dissociation) [8]: 0.13 s
τoff,2 (slow phase of dissociation) [8]: 1.18 s
Kd [9]: 6.06 µM
kon [9]: 1.1e+06 M⁻¹ s⁻¹
λon (apparent association time constant) [9]: 75.8 s
τoff,1 (fast phase of dissociation) [9]: 0.15 s
τoff,2 (slow phase of dissociation) [9]: 4.57 s
Kd [10]: 3.4 µM
kon [10]: 1.73e+06 M⁻¹ s⁻¹
λon (apparent association time constant) [10]: 48.2 s
τoff,1 (fast phase of dissociation) [10]: 0.17 s
τoff,2 (slow phase of dissociation) [10]: 4.09 s
Kd [11]: 0.84 µM
kon [11]: 4.25e+06 M⁻¹ s⁻¹
λon (apparent association time constant) [11]: 19.6 s
τoff,1 (fast phase of dissociation) [11]: 0.28 s
τoff,2 (slow phase of dissociation) [11]: 4.45 s
Kd [12]: 3.72 µM
kon [12]: 2.07e+06 M⁻¹ s⁻¹
λon (apparent association time constant) [12]: 43.3 s
τoff,1 (fast phase of dissociation) [12]: 0.13 s
τoff,2 (slow phase of dissociation) [12]: 3.93 s
τoff,2 (slow phase of dissociation) [13]: 2.3 s
percent dimeric HP1α [14]: 42%
Kd [15]: 1.48 µM
kon [15]: 3.55e+06 M⁻¹ s⁻¹
λon (apparent association time constant) [15]: 23.8 s
τoff,1 (fast phase of dissociation) [15]: 0.19 s
τoff,2 (slow phase of dissociation) [15]: 3.97 s
Substance: Atto532-labelled HP1α (natural protein)

τoff,1 (fast phase of dissociation) [5]: 0.1 s
τoff,2 (slow phase of dissociation) [5]: 0.56 s
Substance: HP1α (W40A) (from UniProt P45973 1-191) (natural protein)

Second part, the substance before the results:

Substance: H3K9me3 1–14 peptide (from UniProt P68431 2-15)
Kd [16]: 5.36 µM
Kd (HP1α (I163E) (human)): 9.4 µM
Kd [17]: 12.5 µM

Substance: HP1α (I163E) (from UniProt P45973 1-191) (natural protein)
λon (apparent association time constant) [5]: > 100 s
τoff,1 (fast phase of dissociation) [5]: 0.23 s
τoff,2 (slow phase of dissociation) [5]: 4.11 s

Substance: HP1αcdm (covalently dimerized HP1α, Atto532-labelled) (from UniProt P45973 1-177)
Kd [18]: 0.14 µM
Kd [5]: 0.13 µM
kon [5]: 2.24e+07 M⁻¹ s⁻¹
λon (apparent association time constant) [5]: 7.45 s
τoff,1 (fast phase of dissociation) [5]: 0.33 s
τoff,2 (slow phase of dissociation) [5]: 3.4 s
